The values below come from patent US12723255B2, “Herbicide tolerance genes and methods of use thereof” (priority 2014, dated 2026).

One series relates to transgenic maize plants. Nature of the series: trait efficacy field trials with homozygous inbred plants, CTP evaluation. The note with it: crop injury percentage. It is filed as in vivo. From the text: To evaluate different chloroplast targeting peptides (CTP), plant transformation vectors were constructed, each comprising a recombinant DNA molecule optimized for monocot expression and encoding MON-HTI (SEQ ID NO: 16), MON-HT2 (SEQ ID NO:20), and MON-HT8 (SEQ ID NO:39), MON-HT9 (SEQ ID NO:42), or MON-HT10 (SEQ ID NO:45). The vectors were created using the same combination of promoter, leader, intron, and 3′-UTR, but with one of three separate CTPs (A, B, or C) or without a CTP operably linked to the protein-coding sequence. The DNA constructs were used to transform immature maize (LH244) embryos using Agrobacterium tumifaciens and standard methods known in the art. Regenerated RO transgenic plantlets were grown in the green house. The R0 plants were selfed to generate R1 homozygous seed. The R0 plants were also used as the male to cross with inbred plants containing maize event MON89034 to generate segregating F1 hybrid seed for trait efficacy field trials.
Separate trait efficacy field trials for quizalofop-P and 2,4-D were conducted at two locations each with the homozygous inbred transgenic plants (R2 or R4 generation). In these field trials, one of two herbicide treatments was used: (1) quizalofop-P (Assure II) at 0.16 lb ai/acre (2×) plus 0.25% v/v non-ionic surfactant (NIS) applied at V4 growth stage followed by the same at V8 growth stage; or (2) 2,4-D amine at 2 lb ae/acre (2×) plus 0.25% v/v non-ionic surfactant (NIS) applied to V4 followed by V8. Injury ratings (crop injury percentage at V4 (CIPV4) or V8 (CIPV8)) were taken 10 to 14 days after the V4 and V8 applications. Error was calculated using LSD (0.05).

The test system of the next series is F1 hybrid maize plants. As to the kind of experiment: trait efficacy field trial, 2,4-D pressure screening, F1 hybrid. It is filed as in vivo. The note with it: crop injury percentage; for 4X 2,4-D CIPV4 / 4X 2,4-D CIPV8: 4 lb ae/acre at VE-V2, V4, V8; for 8X 2,4-D CIPV4 / 8X 2,4-D CIPV8: 8 lb ae/acre at VE-V2, V4, V8; for 16X 2,4-D CIPV4 / 16X 2,4-D CIPV8: 16 lb ae/acre at VE-V2, V4, V8. As to the method:
Separate trait efficacy field trials for quizalofop-P and 2,4-D pressure screening were conducted at one location each with F1 hybrid transgenic plants produced by crossing an inbred plant containing maize event MON89034 with an R1 plant containing MON-HT1, MON-HT2, MON-HT8, MON-HT9, and MON-HT10 with and without operably linked CTP sequences. Transgenic F1 hybrid plants containing maize events NK603×MON89034 were used for comparison as a control.
Three herbicide treatments were used in the trait efficacy field trial for 2,4-D tolerance: (1) 2,4-D amine at 4 lb ac/acre (4×) plus 0.25% v/v NIS applied to VE-V2 followed by V4 followed by V8; (2) 2,4-D amine at 8 lb ac/acre (8×) plus 0.25% v/v NIS applied to VE-V2 followed by V4followed by V8 maize; or (3) 2,4-D amine at 16 lb ac/acre (16×) plus 0.25% v/v NIS applied to VE-V2 followed by V4 followed by V8. Plots were visually rated as above.
The injury rating for the control plants after all 2,4-D applications ranged from 80% to 96.25%. At the highest rate of 2,4-D (16×) applied through V8, the plants containing MON-HT1 or MON-HT2 operably linked to any of the three CTPs (A, B, or C) had better tolerance than plants containing MON-HT1 or MON-HT2 not operably linked to a CTP. Plants containing MON-HT1, MON-HT2, or MON-HT8 with or without an operably linked CTP had better tolerance to 2,4-D at all applications tested compared to plants containing either MON-HT9 or MON-HT10 with an operably linked ‘A’ CTP. Over the range of 2,4-D applications the relative ranking of tolerance was: plants containing MON-HT1 had better tolerance than plants containing MON-HT2 which were in turn better than plants containing MON-HT8. […] Error was calculated using LSD (0.05).

Series [1] relates to mRNA transcribed from the transgene cassette. Nature of the series: Quantigene analysis of transgene mRNA expression in leaf samples. Conditions: normalized to maize housekeeping genes, average of eight samples. From the text: Leaf samples were collected from the plants containing transgene cassettes encoding MON-HT1, MON-HT2, and MON-HT8 with and without CTP sequences to determine expression of the mRNA transcribed from the transgene cassette encoding the engineered proteins. Quantigene® analysis was done on the leaf sample extracts to determine mRNA expression of the transgene cassette. For these assays, the probe was to the common 3′-UTR sequence present in each expression cassette used to generate the transgenic plants. Relative expression was calculated by normalizing to maize housekeeping genes. A leaf sample was collected from each of eight plants for each construct configuration used to make the transgenic plants, and the reported relative mRNA expression data is an average of the eight samples with standard error.

[2] abbreviates: CTP A, 0.16 lb ai/acre at V4, V8, LSD (0.05) = 1.45.
Where [3] appears, read: CTP A, 0.16 lb ai/acre at V4, V8, LSD (0.05) = 2.2.
The mark [4] stands for this setting: CTP A, 2 lb ae/acre at V4, V8, LSD (0.05) = 0.95.
Where [5] appears, read: CTP A, 2 lb ae/acre at V4, V8, LSD (0.05) = 1.6.
Where [6] appears, read: CTP B, 0.16 lb ai/acre at V4, V8.
Setting [7] is: CTP C, 0.16 lb ai/acre at V4, V8.

B1: MON-HT8: engineered oxygenase protein, amino acid sequence SEQ ID NO:37 (protein)
chain: MHAALTPLTNKYRFIDVQPLTGVLGAEITGVDLREPLDDSTWNEILDAFHTYQVIYFPGQAITNEQHIAFSRRFGPVDPVPILKSIEGYPEVQMIRREANESGRVIGDDWHTDSTFLDAPPAAVVMRAIEVPEYGGDTGFLSMYSAWETLSPTMQATIEGLNVVHSATKVFGSLYQATNWRFSNTSVKVMDVDAGDRETVHPLVVTHPVTGRRALYCNQVYCQKIQGMTDAESKSLLQFLYEHATKFDFTCRVRWKKDQVLVWDNLCTMHRSVPDYGNAFRYLTRTTVAGDKPSR
With B1, the “2X Quizalofop-P CIPV4” value in the series on transgenic maize plants (setting [2]) is 0; with transgenic maize plants (setting [6]), 0.75; in the series on transgenic maize plants (setting [7]), 0. Moreover, the entries for the “2X Quizalofop-P CIPV8” value with transgenic maize plants (setting [3]), in the series with transgenic maize plants (setting [6]) and in the series with transgenic maize plants (setting [7]) were 1.25, 2.5 and 1.25, respectively. Also, the “2X 2,4-D CIPV4” value is on record as 1.75 with transgenic maize plants (setting [4]); 0 in the series with transgenic maize plants (CTP B, 2 lb ae/acre at V4, V8); 1.25 in the series on transgenic maize plants (CTP C, 2 lb ae/acre at V4, V8). The “2X 2,4-D CIPV8” value in the series on transgenic maize plants (setting [5]) amounted to 1.25; in the series on transgenic maize plants (CTP B, 2 lb ae/acre at V4, V8) it was 1.25; with transgenic maize plants (CTP C, 2 lb ae/acre at V4, V8) it was 0. The figures for the “4X 2,4-D CIPV4” value in the series with F1 hybrid maize plants (CTP A), in the series on F1 hybrid maize plants (CTP B) and in the series with F1 hybrid maize plants (CTP C) were 7.5, 5 and 10, respectively. The “4X 2,4-D CIPV8” value is given as 5 in the series on F1 hybrid maize plants (CTP A), 7.5 with F1 hybrid maize plants (CTP B) and 7.5 in the series with F1 hybrid maize plants (CTP C). Besides, the “8X 2,4-D CIPV4” value in the series with F1 hybrid maize plants (CTP A), in the series with F1 hybrid maize plants (CTP B) and with F1 hybrid maize plants (CTP C) was 10 in each case. For the same molecule, the figures for the “8X 2,4-D CIPV8” value in the series with F1 hybrid maize plants (CTP A), with F1 hybrid maize plants (CTP B) and with F1 hybrid maize plants (CTP C) were 12.5, 27.5 and 17.5, respectively. Moreover, the figures for the “16X 2,4-D CIPV4” value in the series on F1 hybrid maize plants (CTP A), in the series with F1 hybrid maize plants (CTP B) and with F1 hybrid maize plants (CTP C) were 15, 10 and 17.5, respectively. Further, the “16X 2,4-D CIPV8” value with F1 hybrid maize plants (CTP A) is 30; with F1 hybrid maize plants (CTP B), 20; in the series with F1 hybrid maize plants (CTP C) it was 25. Also, the “Relative Expression” value in series [1] (CTP A) was found to be 8.06; in series [1] (CTP B), 7.62; in series [1] (CTP C), 4.87.

B2: MON-HT9: engineered oxygenase protein, amino acid sequence SEQ ID NO:40 (protein)
chain: MHAALTPLTNKYRFIDVQPLTGVLGAEITGVDLREPLDDSTWNEILDAFHTYQVIYFPAQQITNEQHISFSRRFGPVDPVPLLKSIEGYPEVQMIRREANESGRILGDDWHTDSTFLDAPPAAVVMRAIEVPEYGGDTGFLSMYSAWDTLSDTMKATIEGLNVVHSATRVFGSLYQAQNWRFSNTSVKVMDVDAGDRETVHPLVVSHPVTGRRALYCNQVYCQRIEGMTDAESKCLLQFLYEHATKFDFTCRVRWKKDQVLVWDNLCTMHRAVPDYAGKFRYLTRTTVAGDRPAR
In the case of B2, the “2X Quizalofop-P CIPV4” value in the series with transgenic maize plants (setting [2]) stood at 0. In addition, the “2X Quizalofop-P CIPV8” value in the series on transgenic maize plants (setting [3]) is recorded as 0. In addition, in the series with transgenic maize plants (setting [4]), the “2X 2,4-D CIPV4” value was determined as 3.75. For the same molecule, the “2X 2,4-D CIPV8” value in the series with transgenic maize plants (setting [5]) amounted to 1.25. Moreover, in the series with F1 hybrid maize plants (CTP A), the “4X 2,4-D CIPV4” value is recorded as 17.5, the “4X 2,4-D CIPV8” value stood at 55, the “8X 2,4-D CIPV4” value amounted to 25 and the “8X 2,4-D CIPV8” value turned out to be 75. In the series with F1 hybrid maize plants (CTP A), the “16X 2,4-D CIPV4” value is 45 and the “16X 2,4-D CIPV8” value came to 90.

B3: MON-HT10: engineered oxygenase protein, amino acid sequence SEQ ID NO:43 (protein)
chain: MHAALTPLTNKYRFIDVQPLCGVLGAEITGVDLREPLDDSTWNEILDAFHTYQVIYFPGQAITNEQHIAFSRRFGPVDPVPLLKSIEGYPEVQMIRREANESGRILGDDWHTDSTFLDAPPAAVVMRAIEVPEYGGDTGFLSMYSAWDTLSDTMKATIEGLNVVHSATRVFGSLYQAQNWRFSNTSVKVMDVDAGDRETVHPLVVSHPVTGRRALYCNQVYCQRIEGMTDAESKCLLQFLYEHATKFDFTCRVRWKKDQVLVWDNLCTMHLAVPDYDGKFRYLTRTTVAGDKPSR
Regarding B3, in the series with transgenic maize plants (setting [2]), the “2X Quizalofop-P CIPV4” value is 0. In the series on transgenic maize plants (setting [3]), the “2X Quizalofop-P CIPV8” value is given as 0. Moreover, the “2X 2,4-D CIPV4” value in the series on transgenic maize plants (setting [4]) came to 0. In addition, the “2X 2,4-D CIPV8” value in the series with transgenic maize plants (setting [5]) worked out at 1.25. In addition, in the series on F1 hybrid maize plants (CTP A), the “4X 2,4-D CIPV4” value was 32.5, the “4X 2,4-D CIPV8” value is reported as 70, the “8X 2,4-D CIPV4” value is given as 55 and the “8X 2,4-D CIPV8” value is reported as 87.5. Besides, in the series on F1 hybrid maize plants (CTP A), the “16X 2,4-D CIPV4” value came to 45 and the “16X 2,4-D CIPV8” value came out at 90.
